Sequences and labels used below:
B1: Chromodomain-helicase-DNA-binding protein 3, residues 374 to 426; numbered along this chain, Q12873 (parent)
chain: YETDHQDYCEVCQQGGEIILCDTCPRAYHLVCLDPELDRAPEGKWSCPHCEKE

± gives the uncertainty stated by the source.

This data set covers variants of B1. As to the kind of experiment: abundance fitness (aPCA) (normalised: wild type 0, dead -1); higher = more abundant; growth selection in yeast, the domain comes from the species named. The note with it: Homo sapiens.
For C21V, the abundance fitness is -0.57 ± 0.13.
The figure for C21S is -0.569 ± 0.13; for C21K it is -0.846 ± 0.2.
For C21D the value was -0.868 ± 0.26; for C21Y, -0.692 ± 0.16.
The figure for C21A is -0.778 ± 0.16; for C21G it is -0.637 ± 0.12; for C21N it is -0.903 ± 0.21.
Regarding C21W, the abundance fitness is -0.831 ± 0.15.
The figure for C21I is -0.818 ± 0.21; for C21L it is -0.74 ± 0.13; for C21T it is -0.381 ± 0.17.
For C21Q the value was -0.822 ± 0.2; for Y28C, -0.189 ± 0.15.
As for Y28V, the abundance fitness is -0.284 ± 0.11.
The figure for Y28R is -0.256 ± 0.1; for Y28N it is -0.377 ± 0.14.
The figure for Y28Q is -0.445 ± 0.14.
For Y28D the value was -0.593 ± 0.18; for Y28F, -0.145 ± 0.12.
On to Y28A, for which the abundance fitness is 0.122 ± 0.12.
For Y28T the value was -0.203 ± 0.14; for Y28W, 0.143 ± 0.14; for Y28H, 0.148 ± 0.13.
For Y28I the value was 0.013 ± 0.13; for Y28E, -0.48 ± 0.21; for Y28K, -0.578 ± 0.22.
Y28G: the abundance fitness is -0.191 ± 0.14.
The figure for Y28M is 0.219 ± 0.14.
For Y28L the value was -0.059 ± 0.1; for Y28P, -0.837 ± 0.2; for H29V, -0.745 ± 0.11.
Consider H29K, for which the abundance fitness was -0.912 ± 0.17.
For H29F the value was -1.07 ± 0.19; for H29R, -0.786 ± 0.097; for H29C, 0.029 ± 0.13.
The figure for H29I is -1.09 ± 0.22; for H29T it is -0.846 ± 0.15; for H29P it is -0.801 ± 0.17.
H29E: the abundance fitness was -0.872 ± 0.14.
For H29G the value was -0.844 ± 0.11; for H29S, -0.852 ± 0.13.
The figure for H29W is -0.656 ± 0.14; for H29N it is -0.383 ± 0.17; for H29A it is -0.745 ± 0.11.
In the case of H29L, the abundance fitness was -0.763 ± 0.12.
For H29Y the value was -1.1 ± 0.19; for H29D, -0.615 ± 0.15.
For C32A the value was -1.09 ± 0.14; for T23F, -0.035 ± 0.11.
For T23D the value was -0.308 ± 0.2.
T23E: the abundance fitness is -0.077 ± 0.16.
For the variant T23W, the abundance fitness is -0.631 ± 0.19.
As to T23K, the abundance fitness is -0.696 ± 0.19.
For T23P the value was -0.596 ± 0.14; for T23H, -0.146 ± 0.13; for T23I, -0.189 ± 0.12.
The figure for T23Q is -0.455 ± 0.27.
For T23A the value was -0.337 ± 0.14.
T23Y: the abundance fitness came out at 0.05 ± 0.12.
The figure for T23N is 0.122 ± 0.15.
The figure for T23R is -0.179 ± 0.11; for T23S it is 0.032 ± 0.1; for T23M it is 0.024 ± 0.2.
For T23G the value was -0.248 ± 0.2.
T23V: the abundance fitness was -0.162 ± 0.17.
The figure for T23L is -0.22 ± 0.099; for Q13W it is -0.363 ± 0.12.
For Q13E the value was -0.09 ± 0.12.
For Q13P the value was -0.783 ± 0.13; for Q13D, -0.346 ± 0.12.
In the case of Q13M, the abundance fitness came to 0.084 ± 0.09.
In the case of Q13R, the abundance fitness was 0.01 ± 0.081.
For Q13F the value was 0.012 ± 0.12.
For Q13N the value was -0.084 ± 0.13; for Q13V, -0.057 ± 0.084; for Q13H, 0.059 ± 0.11.
For Q13K the value was -0.051 ± 0.1.
For the variant Q13C, the abundance fitness is -0.048 ± 0.12.
Consider Q13S, for which the abundance fitness was -0.019 ± 0.084.
The figure for Q13A is -0.237 ± 0.1; for Q13Y it is -0.015 ± 0.11; for Q13G it is -0.194 ± 0.1.
For C24Q the value was -0.898 ± 0.24; for C24K, -0.919 ± 0.21; for C24F, -1.05 ± 0.23.
For C24Y the value was -1.34 ± 0.24; for C24M, -0.914 ± 0.24.
Consider C24P, for which the abundance fitness is -1.11 ± 0.21.
For the variant C24H, the abundance fitness was -0.907 ± 0.25.
With C24R, the abundance fitness was -0.951 ± 0.14.
For C24T the value was -0.687 ± 0.17; for C24I, -0.9 ± 0.35; for C24D, -0.754 ± 0.22.
The figure for C24V is -1.08 ± 0.15; for C24S it is -0.617 ± 0.15; for C24A it is -0.799 ± 0.23.
For C24W the value was -1.12 ± 0.19; for C24E, -1.16 ± 0.26; for C24G, -0.962 ± 0.14.
With L30I, the abundance fitness was -0.27 ± 0.14.
The figure for L30Y is 0.098 ± 0.13.
The figure for L30E is -0.155 ± 0.14; for L30F it is -0.038 ± 0.15.
Regarding L30T, the abundance fitness is -0.067 ± 0.11.
For L30Q the value was -0.189 ± 0.14; for L30S, -0.202 ± 0.097.
The figure for L30C is 0.072 ± 0.12.
The figure for L30A is 0.053 ± 0.11; for L30V it is -0.014 ± 0.1; for L30K it is -0.121 ± 0.14.
Turning to L30P, the abundance fitness was found to be 0.021 ± 0.11.
For L30H the value was -0.059 ± 0.13.
For L30G the value was -0.014 ± 0.13.
The figure for L30D is -0.264 ± 0.17; for L30N it is -0.197 ± 0.18.
In the case of L30M, the abundance fitness was 0.067 ± 0.088.
The figure for G16K is 0.346 ± 0.13; for G16H it is -0.057 ± 0.17.
For G16F the value was -0.156 ± 0.28; for G16V, -0.113 ± 0.11.
Consider G16Q, for which the abundance fitness is -0.251 ± 0.19.
The figure for G16W is 0.025 ± 0.12; for G16E it is 0.07 ± 0.15.
For G16D the value was -0.053 ± 0.18.
For G16L the value was -0.097 ± 0.11; for G16C, -0.256 ± 0.14; for G16R, 0.197 ± 0.083.
G16M: the abundance fitness was -0.237 ± 0.15.
Regarding G16P, the abundance fitness was -0.423 ± 0.13.
For G16Y the value was 0.033 ± 0.15.
The figure for G16T is 0.234 ± 0.13; for G16N it is 0.157 ± 0.16.
As for G16I, the abundance fitness was determined as 0.079 ± 0.17.
As to G16S, the abundance fitness turned out to be 0.118 ± 0.1.
As for Q14F, the abundance fitness is -0.26 ± 0.12.
For the variant Q14R, the abundance fitness was 0.017 ± 0.088.
The figure for Q14V is -0.129 ± 0.14; for Q14T it is -0.051 ± 0.1; for Q14L it is -0.127 ± 0.1.
For Q14I the value was -0.17 ± 0.17.
The figure for Q14S is -0.192 ± 0.096; for Q14H it is -0.159 ± 0.15; for Q14Y it is -0.501 ± 0.2.
Consider Q14G, for which the abundance fitness is -0.151 ± 0.15.
For Q14E the value was -0.029 ± 0.43; for Q14A, -0.043 ± 0.12; for Q14P, -1 ± 0.22.
The figure for Q14M is -0.022 ± 0.14; for Q14D it is -0.166 ± 0.18.
On to Q14N, for which the abundance fitness stood at 0.016 ± 0.15.
The figure for Q14C is -0.036 ± 0.13; for R26G it is -0.046 ± 0.091.
As to R26A, the abundance fitness is -0.202 ± 0.11.
For R26Y the value was -0.148 ± 0.15.
The figure for R26M is -0.106 ± 0.16; for R26H it is -0.17 ± 0.18.
Take R26D: the abundance fitness is -0.159 ± 0.15.
The figure for R26S is 0.087 ± 0.1; for R26C it is -0.669 ± 0.24; for R26E it is -0.123 ± 0.13.
R26N: the abundance fitness is -0.169 ± 0.16.
The figure for R26L is 0.155 ± 0.1; for R26P it is -0.655 ± 0.17.
For R26Q the value was 0.417 ± 0.28; for R26I, -0.445 ± 0.17; for R26V, -0.363 ± 0.1.

These data come from the Human Domainome abundance scans (Beltran et al. 2025).
